The target of assay [1] is Botulinum neurotoxin serotype A (BoNT/A) holotoxin (Clostridium botulinum serotype A, …, UniProt P0DPI1). The experiment in a line: SPR; Biacore; […] (50 ug/mL) […], in HBS-EP ([…]; 120 s flow, 600 s dissociation; […]. The note with it: both partners purified.
Assay [2] addresses recombinant C-terminal domain of the BoNT/A heavy chain (heavy chain receptor domain, HCR) (Clostridium botulinum serotype A, …, UniProt P0DPI1). The assay is described as above. The note with it: both partners purified.

B1: HZ45 humanized monoclonal antibody (antibody, V domains shown)
VH: EVQLVQSGAEVKKPGASVKVSCKASGYTFTDYYINWVRQATGQGLEWLGESYPGSGTAFYNEKFKGKATLTADKSKNTAYMELSSLRSEDTAVYFCARSDGSPFAYWGQGTLVTVSS
VL: DIQMTQSPSSLSASVGDRVTITCKASDYINNWLAWYQQKPGKAPKLLISGAISLETGVPSRFSGSGSGTDYTLTISSLQPEDFATYYCQQYWSPPLTFGQGTKVEIK
notes: also called HZ45 mAb; HZ45 antibody; source: CHO-K1, transfected, purified from culture medium (ammonium sulfate, HIC-Phenyl)
B1: the Kd in assay [1] came to 0.551 nM; in assay [2], 0.0423 nM.

Usually Kd stands for the free concentration of one partner at which half of the binding sites on the other are occupied at equilibrium, for simple one-to-one binding.

The record behind these values is PMC11946523 (Toxins, 2025).
